Assay results taken from paper PMC7352350, “Molecular Interactions Stabilizing the Promatrix Metalloprotease-9·Serglycin Heteromer” (International Journal of Molecular Sciences, 2020).

B1: proMMP-9 purified from THP-1 cells (enzyme, human (endogenous in THP-1), UniProt P14780 20-707, looked up)
chain: APRQRQSTLVLFPGDLRTNLTDRQLAEEYLYRYGYTRVAEMRGESKSLGPALLLLQKQLSLPETGELDSATLKAMRTPRCGVPDLGRFQTFEGDLKWHHHNITYWIQNYSEDLPRAVIDDAFARAFALWSAVTPLTFTRVYSRDADIVIQFGVAEHGDGYPFDGKDGLLAHAFPPGPGIQGDAHFDDDELWSLGKGVVVPTRFGNADGAACHFPFIFEGRSYSACTTDGRSDGLPWCSTTANYDTDDRFGFCPSERLYTQDGNADGKPCQFPFIFQGQSYSACTTDGRSDGYRWCATTANYDRDKLFGFCPTRADSTVMGGNSAGELCVFPFTFLGKEYSTCTSEGRGDGRLWCATTSNFDSDKKWGFCPDQGYSLFLVAAHEFGHALGLDHSSVPEALMYPMYRFTEGPPLHKDDVNGIRHLYGPRPEPEPRPPTTTTPQPTAPPTVCPTGPPTVHPSERPTAGPTGPPSAGPTGPPTAGPSTATTVPLSPVDDACNVNIFDAIAEIGNQLYLFKDGKYWRFSEGRGSRPQGPFLIADKWPALPRKLDSVFEERLSKKLFFFSGRQVWVYTGASVLGPRRLDKLGLGADVAQVTGALRSGRGKMLLFSGRRLWRFDVKAQMVDPRSASEVDRMFPGVPLDTHDVFQYREKAYFCQDRFYWRVSSRSELNQVDQVGYVTYDILQCPED
notes: matrix metalloprotease-9 proenzyme, human; pre domain cleaved off, the mature proenzyme is 20-707; the preparation holds a small amount of TIMP-1; monomer and reduction-sensitive homomultimer; also called pMMP-9; promatrix metalloprotease-9; source: purified from conditioned medium of PMA-stimulated THP-1 cells (Q-Sepharose pass-through, gelatin-Sepharose)

Assays:
[1] = target: B1; assay: far-Western, overlay or dot blot; slot blot: 200 ng Ht-SG on a polyvinyl difluoride membrane, blocked with milk powder, incubated with pMMP-9 for 2.5 h at room temperature; detected with antibody against proMMP-9; conditions: both partners purified
[2] = target: the molecule itself; assay: SDS-PAGE, Western blotting and gelatin zymography under non-reducing and reducing conditions; purified preparations; SDS-stable, reduction-sensitive homomultimer beside the monomer
[3] = target: B1; assay: peptide or protein array; mutated SG 20-mer peptides on cellulose, incubated with pMMP-9; antibody against MMP-9; conditions: both partners purified

Binder | binding result [2] | binding result [3] | also measured
recombinant human His-tagged serglycin (natural protein, UniProt P10124 28-158, looked up, serglycin core protein, human, the tag stands instead of the signal peptide; no GAG chains; numbers count on: the mature protein (1-131); also called Ht-SG; SG core protein; source: bought: ProSpec (produced in Escherichia coli)) YPTRRARYQWVRCNPDSNSANCLEEKGPMFELLPGESNKIPRLRTDLFPKTRIQDLNRIFPLSEDYSGSGFGSGSGSGSGSGSGFLTEMEQDYQLVDESDAFHDNLRSLDRNLPSDSQDLGQHGLEEDFML | – | – | binding result [1]: binds
recombinant proMMP-9 lacking the HPX domain (domain or fragment, human, UniProt P14780 20-515, looked up, MMP-9 proenzyme, human; stop codon behind the codon for A515; the mature proenzyme starts at 20; also called rpMMP-9ΔHPX; proMMP-9ΔHPX; source: Sf9, baculovirus, purified (gelatin-Sepharose)) APRQRQSTLVLFPGDLRTNLTDRQLAEEYLYRYGYTRVAEMRGESKSLGPALLLLQKQLSLPETGELDSATLKAMRTPRCGVPDLGRFQTFEGDLKWHHHNITYWIQNYSEDLPRAVIDDAFARAFALWSAVTPLTFTRVYSRDADIVIQFGVAEHGDGYPFDGKDGLLAHAFPPGPGIQGDAHFDDDELWSLGKGVVVPTRFGNADGAACHFPFIFEGRSYSACTTDGRSDGLPWCSTTANYDTDDRFGFCPSERLYTQDGNADGKPCQFPFIFQGQSYSACTTDGRSDGYRWCATTANYDRDKLFGFCPTRADSTVMGGNSAGELCVFPFTFLGKEYSTCTSEGRGDGRLWCATTSNFDSDKKWGFCPDQGYSLFLVAAHEFGHALGLDHSSVPEALMYPMYRFTEGPPLHKDDVNGIRHLYGPRPEPEPRPPTTTTPQPTAPPTVCPTGPPTVHPSERPTAGPTGPPSAGPTGPPTAGPSTATTVPLSPVDDA | binds | – | –
B1 | binds | – | –
recombinant full-length proMMP-9 (enzyme, human, UniProt P14780 20-707, looked up, matrix metalloprotease-9 proenzyme, human, full-length; pre domain cleaved off, the mature proenzyme is 20-707; also called rpMMP-9; source: Sf9, baculovirus, purified (gelatin-Sepharose)) APRQRQSTLVLFPGDLRTNLTDRQLAEEYLYRYGYTRVAEMRGESKSLGPALLLLQKQLSLPETGELDSATLKAMRTPRCGVPDLGRFQTFEGDLKWHHHNITYWIQNYSEDLPRAVIDDAFARAFALWSAVTPLTFTRVYSRDADIVIQFGVAEHGDGYPFDGKDGLLAHAFPPGPGIQGDAHFDDDELWSLGKGVVVPTRFGNADGAACHFPFIFEGRSYSACTTDGRSDGLPWCSTTANYDTDDRFGFCPSERLYTQDGNADGKPCQFPFIFQGQSYSACTTDGRSDGYRWCATTANYDRDKLFGFCPTRADSTVMGGNSAGELCVFPFTFLGKEYSTCTSEGRGDGRLWCATTSNFDSDKKWGFCPDQGYSLFLVAAHEFGHALGLDHSSVPEALMYPMYRFTEGPPLHKDDVNGIRHLYGPRPEPEPRPPTTTTPQPTAPPTVCPTGPPTVHPSERPTAGPTGPPSAGPTGPPTAGPSTATTVPLSPVDDACNVNIFDAIAEIGNQLYLFKDGKYWRFSEGRGSRPQGPFLIADKWPALPRKLDSVFEERLSKKLFFFSGRQVWVYTGASVLGPRRLDKLGLGADVAQVTGALRSGRGKMLLFSGRRLWRFDVKAQMVDPRSASEVDRMFPGVPLDTHDVFQYREKAYFCQDRFYWRVSSRSELNQVDQVGYVTYDILQCPED | binds | – | –
PRLRTALFPKTRIQDLNRIF (peptide, UniProt P10124 68-87, looked up, serglycin core protein, mutated 20-mer of spot 21; numbers count on: the mature protein (1-131); source: synthetic peptide on a cellulose membrane) [SG peptide 21 with D46 changed to A] | – | binds | –
TALFPKTRIQDLNRIFPLSE (peptide, UniProt P10124 72-91, looked up, serglycin core protein, mutated 20-mer of spot 23; numbers count on: the mature protein (1-131); source: synthetic peptide on a cellulose membrane) [SG peptide 23 with D46 changed to A] | – | binds | –
